Source: article PMC9482650, “Quantitative fragmentomics allow affinity mapping of interactomes” (Nature Communications, 2022)

Legend:
Assay in all cases: holdup assay
Parameters in all cases: key: below the threshold = too weak to quantify, mostly under pKd 3.1 to 4
Details in all cases: plain residues with an end cap or a label only (N-terminal biotin on a linker: ado-ado)
PDZD2_2, O15018 = molecular target: T1, PDZD2_2, O15018
T1 sequence (O15018 329-429, limits assumed, looked up): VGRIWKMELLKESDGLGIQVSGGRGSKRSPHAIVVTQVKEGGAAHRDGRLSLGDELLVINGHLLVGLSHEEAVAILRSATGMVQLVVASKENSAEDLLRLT

NHERF3_4, Q5T2W1 = molecular target: T2, NHERF3_4, Q5T2W1
T2 sequence (Q5T2W1 373-468, limits assumed, looked up): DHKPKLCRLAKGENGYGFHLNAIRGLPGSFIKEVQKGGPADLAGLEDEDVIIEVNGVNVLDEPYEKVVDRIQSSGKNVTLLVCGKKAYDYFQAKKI

MAGI1_2, Q96QZ7 = molecular target: MAGI1_2, Q96QZ7
SIPA1L2, Q9P2F8 = molecular target: T3, SIPA1L2, Q9P2F8
T3 sequence (Q9P2F8 945-1036, limits assumed, looked up): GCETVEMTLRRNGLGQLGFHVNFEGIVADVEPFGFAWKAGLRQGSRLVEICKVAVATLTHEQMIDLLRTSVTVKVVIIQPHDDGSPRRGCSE

IL16_3, Q14005 = molecular target: IL16_3, Q14005
GIPC2, Q8TF65 = molecular target: GIPC2, Q8TF65
Inadl_5, Q8NI35 = molecular target: Inadl_5, Q8NI35
Inadl_1, Q8NI35 = molecular target: Inadl_1, Q8NI35
SHANK1, Q9Y566 = molecular target: T4, SHANK1, Q9Y566
T4 sequence (Q9Y566 658-767, limits assumed, looked up): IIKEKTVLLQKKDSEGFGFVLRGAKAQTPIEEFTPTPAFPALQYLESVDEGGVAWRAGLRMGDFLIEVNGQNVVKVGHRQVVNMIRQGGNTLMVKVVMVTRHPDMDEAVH

DLG5_1, Q8TDM6 = molecular target: DLG5_1, Q8TDM6
FRMPD4, Q14CM0 = molecular target: FRMPD4, Q14CM0
AHNAK1, Q09666 = molecular target: AHNAK1, Q09666
SNX27, Q96L92 = molecular target: SNX27, Q96L92
GORASP1, Q9BQQ3 = molecular target: GORASP1, Q9BQQ3
TJP1_3, Q07157 = molecular target: TJP1_3, Q07157
Inadl_9, Q8NI35 = molecular target: Inadl_9, Q8NI35
GRID2IP_2, A4D2P6 = molecular target: GRID2IP_2, A4D2P6
PDZRN3_1, Q9UPQ7 = molecular target: T5, PDZRN3_1, Q9UPQ7
T5 sequence (Q9UPQ7 244-349, limits assumed, looked up): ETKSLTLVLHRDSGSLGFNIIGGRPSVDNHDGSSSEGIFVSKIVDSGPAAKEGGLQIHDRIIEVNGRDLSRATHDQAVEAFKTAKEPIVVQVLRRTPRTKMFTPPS

LRRC7, Q96NW7 = molecular target: T6, LRRC7, Q96NW7
T6 sequence (Q96NW7 1440-1537, limits assumed, looked up): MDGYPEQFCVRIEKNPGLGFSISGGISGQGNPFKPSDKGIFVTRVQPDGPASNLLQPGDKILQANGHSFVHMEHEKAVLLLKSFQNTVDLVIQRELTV

DLG4_3, P78352 = molecular target: DLG4_3, P78352
LNX1_3, Q8TBB1 = molecular target: LNX1_3, Q8TBB1
NHERF4_4, Q86UT5 = molecular target: NHERF4_4, Q86UT5
LNX2_3, Q8N448 = molecular target: T7, LNX2_3, Q8N448
T7 sequence (Q8N448 463-564, limits assumed, looked up): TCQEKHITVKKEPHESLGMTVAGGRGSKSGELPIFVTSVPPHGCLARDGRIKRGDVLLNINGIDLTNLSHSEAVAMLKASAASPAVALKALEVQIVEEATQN

Inadl_4, Q8NI35 = molecular target: Inadl_4, Q8NI35
DLG3_3, Q92796 = molecular target: T8, DLG3_3, Q92796
T8 sequence (Q92796 374-475, limits assumed, looked up): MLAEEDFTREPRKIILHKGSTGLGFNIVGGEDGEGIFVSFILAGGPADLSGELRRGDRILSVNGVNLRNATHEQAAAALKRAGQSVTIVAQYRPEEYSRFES

FRMPD2_3, Q68DX3 = molecular target: FRMPD2_3, Q68DX3
NOS1, P29475 = molecular target: NOS1, P29475
APBA3_1, O96018 = molecular target: T9, APBA3_1, O96018
T9 sequence (O96018 389-490, limits assumed, looked up): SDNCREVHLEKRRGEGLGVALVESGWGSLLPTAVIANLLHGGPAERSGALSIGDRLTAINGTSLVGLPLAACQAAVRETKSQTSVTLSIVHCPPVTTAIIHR

LIMK2, P53671 = molecular target: LIMK2, P53671
Chain of LIMK2, P53671 (P53671 143-248): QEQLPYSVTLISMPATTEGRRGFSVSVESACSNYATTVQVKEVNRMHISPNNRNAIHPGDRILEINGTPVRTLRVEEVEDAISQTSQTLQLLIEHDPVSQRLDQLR

Chain of IL16_3, Q14005 (Q14005 1107-1207): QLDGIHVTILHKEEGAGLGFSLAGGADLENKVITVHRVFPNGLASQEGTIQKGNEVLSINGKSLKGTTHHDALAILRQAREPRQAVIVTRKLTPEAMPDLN
Chain of DLG4_3, P78352 (P78352 306-403): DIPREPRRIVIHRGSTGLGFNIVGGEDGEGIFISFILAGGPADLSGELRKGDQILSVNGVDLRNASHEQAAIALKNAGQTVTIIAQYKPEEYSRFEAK
Chain of FRMPD4, Q14CM0 (Q14CM0 67-160): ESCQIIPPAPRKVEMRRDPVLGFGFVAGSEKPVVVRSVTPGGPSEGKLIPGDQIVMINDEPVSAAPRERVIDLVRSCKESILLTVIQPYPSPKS
Chain of GIPC2, Q8TF65 (Q8TF65 112-203): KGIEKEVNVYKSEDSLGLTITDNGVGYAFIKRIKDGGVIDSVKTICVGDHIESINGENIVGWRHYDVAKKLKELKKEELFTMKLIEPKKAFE
Chain of GRID2IP_2, A4D2P6 (A4D2P6 272-370): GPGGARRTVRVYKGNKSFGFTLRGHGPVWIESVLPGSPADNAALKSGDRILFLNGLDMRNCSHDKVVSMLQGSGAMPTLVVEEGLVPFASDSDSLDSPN
Chain of TJP1_3, Q07157 (Q07157 416-512): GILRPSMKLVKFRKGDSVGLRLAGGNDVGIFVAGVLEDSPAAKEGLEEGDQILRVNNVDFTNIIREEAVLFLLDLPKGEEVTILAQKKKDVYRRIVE
Chain of Inadl_9, Q8NI35 (Q8NI35 1530-1615): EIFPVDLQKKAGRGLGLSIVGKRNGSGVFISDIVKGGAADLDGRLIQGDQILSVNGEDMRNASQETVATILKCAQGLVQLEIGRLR
Chain of Inadl_5, Q8NI35 (Q8NI35 673-780): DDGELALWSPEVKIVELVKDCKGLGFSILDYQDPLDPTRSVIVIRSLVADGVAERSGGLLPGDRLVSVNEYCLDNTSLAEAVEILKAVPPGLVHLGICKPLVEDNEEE
Chain of Inadl_4, Q8NI35 (Q8NI35 547-651): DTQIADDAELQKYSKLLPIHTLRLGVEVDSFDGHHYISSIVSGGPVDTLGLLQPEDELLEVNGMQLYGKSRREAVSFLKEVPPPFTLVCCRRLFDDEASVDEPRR
Chain of NOS1, P29475 (P29475 9-101): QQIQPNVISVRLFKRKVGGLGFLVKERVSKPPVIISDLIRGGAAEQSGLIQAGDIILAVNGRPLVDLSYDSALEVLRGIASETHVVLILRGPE
Chain of GORASP1, Q9BQQ3 (Q9BQQ3 1-208): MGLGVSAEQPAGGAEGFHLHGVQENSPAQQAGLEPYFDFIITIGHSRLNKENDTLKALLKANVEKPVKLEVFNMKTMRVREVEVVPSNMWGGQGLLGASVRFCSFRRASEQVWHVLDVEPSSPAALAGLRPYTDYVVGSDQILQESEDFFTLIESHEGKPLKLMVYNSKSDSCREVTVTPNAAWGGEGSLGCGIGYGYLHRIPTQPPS
Chain of NHERF4_4, Q86UT5 (Q86UT5 464-550): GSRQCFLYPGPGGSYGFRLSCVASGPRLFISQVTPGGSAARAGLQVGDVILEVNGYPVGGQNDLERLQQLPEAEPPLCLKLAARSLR
Chain of DLG5_1, Q8TDM6 (Q8TDM6 617-713): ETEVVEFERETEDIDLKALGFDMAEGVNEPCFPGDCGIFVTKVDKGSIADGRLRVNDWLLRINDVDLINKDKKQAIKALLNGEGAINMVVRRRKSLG
Chain of LNX1_3, Q8TBB1 (Q8TBB1 500-596): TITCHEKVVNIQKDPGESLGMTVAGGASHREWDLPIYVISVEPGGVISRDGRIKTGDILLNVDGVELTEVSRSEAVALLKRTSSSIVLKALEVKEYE
Chain of AHNAK1, Q09666 (Q09666 4-100): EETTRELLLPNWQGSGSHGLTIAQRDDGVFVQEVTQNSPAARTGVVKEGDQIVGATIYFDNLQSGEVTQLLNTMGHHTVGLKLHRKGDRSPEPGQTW
Chain of FRMPD2_3, Q68DX3 (Q68DX3 1073-1166): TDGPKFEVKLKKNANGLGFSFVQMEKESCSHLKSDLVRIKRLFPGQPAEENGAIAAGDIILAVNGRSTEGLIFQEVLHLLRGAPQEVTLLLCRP
Chain of Inadl_1, Q8NI35 (Q8NI35 113-229): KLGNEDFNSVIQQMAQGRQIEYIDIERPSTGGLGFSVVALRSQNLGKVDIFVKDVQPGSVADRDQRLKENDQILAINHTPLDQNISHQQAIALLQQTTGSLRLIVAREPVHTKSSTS
Chain of MAGI1_2, Q96QZ7 (Q96QZ7 456-580): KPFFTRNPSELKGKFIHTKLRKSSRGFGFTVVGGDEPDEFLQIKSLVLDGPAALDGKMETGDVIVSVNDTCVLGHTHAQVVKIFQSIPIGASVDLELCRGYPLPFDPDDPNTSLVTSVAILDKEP

B1: ADGRE5, P48960 (peptide)
chain: RALRASESGI
In the case of B1, the pKd (PDZD2_2, O15018) is reported as “below the threshold”, the pKd (NHERF3_4, Q5T2W1) is reported as “below the threshold” and the pKd (MAGI1_2, Q96QZ7) is reported as “below the threshold”. The pKd (SIPA1L2, Q9P2F8) was “below the threshold”, the pKd (IL16_3, Q14005) was “below the threshold” and the pKd (GIPC2, Q8TF65) was “below the threshold”. For the same binder, the pKd (Inadl_5, Q8NI35) was “below the threshold”, the pKd (Inadl_1, Q8NI35) was “below the threshold” and the pKd (SHANK1, Q9Y566) was “below the threshold”. For the same binder, the pKd (DLG5_1, Q8TDM6) was “below the threshold”, the pKd (FRMPD4, Q14CM0) was “below the threshold” and the pKd (AHNAK1, Q09666) was “below the threshold”. The pKd (SNX27, Q96L92) was “below the threshold”, the pKd (GORASP1, Q9BQQ3) was “below the threshold” and the pKd (TJP1_3, Q07157) was “below the threshold”. The pKd (Inadl_9, Q8NI35) was “below the threshold”, the pKd (GRID2IP_2, A4D2P6) was “below the threshold” and the pKd (PDZRN3_1, Q9UPQ7) was “below the threshold”. For the same binder, the pKd (LRRC7, Q96NW7) was “below the threshold”, the pKd (DLG4_3, P78352) was “below the threshold” and the pKd (LNX1_3, Q8TBB1) was “below the threshold”. The pKd (NHERF4_4, Q86UT5) was “below the threshold”, the pKd (LNX2_3, Q8N448) was “below the threshold” and the pKd (Inadl_4, Q8NI35) was “below the threshold”. The pKd (DLG3_3, Q92796) was “below the threshold”, the pKd (FRMPD2_3, Q68DX3) was “below the threshold” and the pKd (NOS1, P29475) was “below the threshold”. For the same binder, the pKd (APBA3_1, O96018) was “below the threshold” and the pKd (LIMK2, P53671) was “below the threshold”.

B2: TTC24, A2A3L6 (peptide)
chain: PMESGICTIV
In the case of B2, the pKd (PDZD2_2, O15018) is reported as 4.68, the pKd (NHERF3_4, Q5T2W1) is reported as “below the threshold” and the pKd (MAGI1_2, Q96QZ7) is reported as 3.7. The pKd (SIPA1L2, Q9P2F8) was “below the threshold”, the pKd (IL16_3, Q14005) was “below the threshold” and the pKd (GIPC2, Q8TF65) was “below the threshold”. The pKd (Inadl_5, Q8NI35) was 3.87, the pKd (Inadl_1, Q8NI35) was “below the threshold” and the pKd (SHANK1, Q9Y566) was 4.04. The pKd (DLG5_1, Q8TDM6) was “below the threshold”, the pKd (FRMPD4, Q14CM0) was “below the threshold” and the pKd (AHNAK1, Q09666) was “below the threshold”. For the same binder, the pKd (SNX27, Q96L92) was 4.63, the pKd (GORASP1, Q9BQQ3) was 4.72 and the pKd (TJP1_3, Q07157) was “below the threshold”. The pKd (Inadl_9, Q8NI35) was 4.06, the pKd (GRID2IP_2, A4D2P6) was 4.17 and the pKd (PDZRN3_1, Q9UPQ7) was 3.48. The pKd (LRRC7, Q96NW7) was “below the threshold”, the pKd (DLG4_3, P78352) was “below the threshold” and the pKd (LNX1_3, Q8TBB1) was 3.53. The pKd (NHERF4_4, Q86UT5) was “below the threshold”, the pKd (LNX2_3, Q8N448) was “below the threshold” and the pKd (Inadl_4, Q8NI35) was “below the threshold”. The pKd (DLG3_3, Q92796) was “below the threshold”, the pKd (FRMPD2_3, Q68DX3) was 3.53 and the pKd (NOS1, P29475) was 3.98. The pKd (APBA3_1, O96018) was “below the threshold” and the pKd (LIMK2, P53671) was “below the threshold”.

B3: GLA, P06280 (peptide)
chain: TMQMSLKDLL
With B3 the pKd (PDZD2_2, O15018) was “below the threshold”, the pKd (NHERF3_4, Q5T2W1) was “below the threshold” and the pKd (MAGI1_2, Q96QZ7) was “below the threshold”. The pKd (SIPA1L2, Q9P2F8) was “below the threshold”, the pKd (IL16_3, Q14005) was 3.5 and the pKd (GIPC2, Q8TF65) was 3.62. For the same binder, the pKd (Inadl_5, Q8NI35) was “below the threshold”, the pKd (Inadl_1, Q8NI35) was “below the threshold” and the pKd (SHANK1, Q9Y566) was 3.59. The pKd (DLG5_1, Q8TDM6) was “below the threshold”, the pKd (FRMPD4, Q14CM0) was 3.67 and the pKd (AHNAK1, Q09666) was “below the threshold”. The pKd (SNX27, Q96L92) was “below the threshold”, the pKd (GORASP1, Q9BQQ3) was 3.61 and the pKd (TJP1_3, Q07157) was 3.61. For the same binder, the pKd (Inadl_9, Q8NI35) was “below the threshold”, the pKd (GRID2IP_2, A4D2P6) was 3.69 and the pKd (PDZRN3_1, Q9UPQ7) was 3.49. For the same binder, the pKd (LRRC7, Q96NW7) was “below the threshold”, the pKd (DLG4_3, P78352) was 3.55 and the pKd (LNX1_3, Q8TBB1) was “below the threshold”. For the same binder, the pKd (NHERF4_4, Q86UT5) was “below the threshold”, the pKd (LNX2_3, Q8N448) was “below the threshold” and the pKd (Inadl_4, Q8NI35) was “below the threshold”. The pKd (DLG3_3, Q92796) was 3.65, the pKd (FRMPD2_3, Q68DX3) was 3.58 and the pKd (NOS1, P29475) was 3.73. For the same binder, the pKd (APBA3_1, O96018) was “below the threshold” and the pKd (LIMK2, P53671) was “below the threshold”.
